These results are taken from publication PMC3852661 (2013).

Holding throughout (experiment): MST
In assay [1] the target is T1, MBP-SUFU-Δ (human, UniProt Q9UMX1 32-278; Q9UMX1 361-483).
T1 chain: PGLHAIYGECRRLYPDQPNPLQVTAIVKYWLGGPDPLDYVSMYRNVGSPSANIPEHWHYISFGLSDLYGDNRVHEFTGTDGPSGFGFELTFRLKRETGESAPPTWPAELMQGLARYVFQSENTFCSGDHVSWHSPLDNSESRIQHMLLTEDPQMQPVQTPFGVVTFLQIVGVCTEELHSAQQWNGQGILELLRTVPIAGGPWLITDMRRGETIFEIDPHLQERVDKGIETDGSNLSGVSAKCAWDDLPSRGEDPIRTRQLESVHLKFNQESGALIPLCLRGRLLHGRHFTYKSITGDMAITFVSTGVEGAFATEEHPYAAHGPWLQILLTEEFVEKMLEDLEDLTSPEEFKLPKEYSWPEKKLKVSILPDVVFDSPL

Assay [2] addresses T2, MBP-SUFU-FL (human, UniProt Q9UMX1 32-483).
T2 chain: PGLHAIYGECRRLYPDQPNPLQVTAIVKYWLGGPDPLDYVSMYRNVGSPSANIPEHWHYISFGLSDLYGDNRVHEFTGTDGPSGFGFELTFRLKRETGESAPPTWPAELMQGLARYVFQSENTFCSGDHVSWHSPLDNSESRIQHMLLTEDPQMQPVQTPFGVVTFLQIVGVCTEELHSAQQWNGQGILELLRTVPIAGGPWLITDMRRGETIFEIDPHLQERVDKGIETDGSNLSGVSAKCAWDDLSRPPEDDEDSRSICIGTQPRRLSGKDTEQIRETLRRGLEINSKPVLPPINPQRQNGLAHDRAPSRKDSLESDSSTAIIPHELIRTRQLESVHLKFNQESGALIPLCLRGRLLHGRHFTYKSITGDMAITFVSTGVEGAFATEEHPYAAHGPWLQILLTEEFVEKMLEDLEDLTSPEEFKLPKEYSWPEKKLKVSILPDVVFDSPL

In assay [3] the target is MBP-SUFU-SH (human, UniProt Q9UMX1 32-278; Q9UMX1 361-483).

Where no end group is shown, it is not given here. The star is where a group is joined. 5FAM = O=C1OC2(c3ccc(O)cc3Oc3cc(O)ccc32)c2ccc(C(=O)*)cc21

Consider 5FAM-TSPGGSYGHLSIGTMSP [FAM-GLI1p], for which the Kd was determined as 4.47 µM in assay [1], 4.5 µM in assay [2] and 4.22 µM in assay [3].
